Laboratory results: IntAct's records for PubMed 31515488

B1: Spindle and kinetochore-associated protein 3 (Homo sapiens), Q8IX90 (parent)
chain: MDPIRSFCGKLRSLASTLDCETARLQRALDGEESDFEDYPMRILYDLHSEVQTLKDDVNILLDKARLENQEGIDFIKATKVLMEKNSMDIMKIREYFQKYGYSPRVKKNSVHEQEAINSDPELSNCENFQKTDVKDDLSDPPVASSCISEKSPRSPQLSDFGLERYIVSQVLPNPPQAVNNYKEEPVIVTPPTKQSLVKVLKTPKCALKMDDFECVTPKLEHFGISEYTMCLNEDYTMGLKNARNNKSEEAIDTESRLNDNVFATPSPIIQQLEKSDAEYTNSPLVPTFCTPGLKIPSTKNSIALVSTNYPLSKTNSSSNDLEVEDRTSLVLNSDTCFENLTDPSSPTISSYENLLRTPTPPEVTKIPEDILQLLSKYNSNLATPIAIKAVPPSKRFLKHGQNIRDVSNKEN
B2: Isoform Long of Autophagy protein 5 (Homo sapiens), Q9H1Y0-1 (parent)
chain: MTDDKDVLRDVWFGRIPTCFTLYQDEITEREAEPYYLLLPRVSYLTLVTDKVKKHFQKVMRQEDISEIWFEYEGTPLKWHYPIGLLFDLLASSSALPWNITVHFKSFPEKDLLHCPSKDAIEAHFMSCMKEADALKHKSQVINEMQKKDHKQLWMGLQNDRFDQFWAINRKLMEYPAEENGFRYIPFRIYQTTTERPFIQKLFRPVAADGQLHTLGDLLKEVCPSAIDPEDGEKKNQVMIHGIEPMLETPLQWLSEHLSYPDNFLHISIIPQPTD
B3: Zinc finger and BTB domain-containing protein 9 (Homo sapiens), Q96C00 (parent)
chain: METPTPLPPVPASPTCNPAPRTIQIEFPQHSSSLLESLNRHRLEGKFCDVSLLVQGRELRAHKAVLAAASPYFHDKLLLGDAPRLTLPSVIEADAFEGLLQLIYSGRLRLPLDALPAHLLVASGLQMWQVVDQCSEILRELETSGGGISARGGNSYHALLSTTSSTGGWCIRSSPFQTPVQSSASTESPASTESPVGGEGSELGEVLQIQVEEEEEEEEDDDDEDQGSATLSQTPQPQRVSGVFPRPHGPHPLPMTATPRKLPEGESAPLELPAPPALPPKIFYIKQEPFEPKEEISGSGTQPGGAKEETKVFSGGDTEGNGELGFLLPSGPGPTSGGGGPSWKPVDLHGNEILSGGGGPGGAGQAVHGPVKLGGTPPADGKRFGCLCGKRFAVKPKRDRHIMLTFSLRPFGCGICNKRFKLKHHLTEHMKTHAGALHACPHCGRRFRVHACFLRHRDLCKGQGWATAHWTYK
B4: Copper homeostasis protein cutC homolog (Homo sapiens), Q9NTM9 (parent)
chain: MKRQGASSERKRARIPSGKAGAANGFLMEVCVDSVESAVNAERGGADRIELCSGLSEGGTTPSMGVLQVVKQSVQIPVFVMIRPRGGDFLYSDREIEVMKADIRLAKLYGADGLVFGALTEDGHIDKELCMSLMAICRPLPVTFHRAFDMVHDPMAALETLLTLGFERVLTSGCDSSALEGLPLIKRLIEQAKGRIVVMPGGGITDRNLQRILEGSGATEFHCSARSTRDSGMKFRNSSVAMGASLSCSEYSLKVTDVTKVRTLNAIAKNILV
B5: Splicing factor 45 (Homo sapiens), Q96I25 (parent)
chain: MSLYDDLGVETSDSKTEGWSKNFKLLQSQLQVKKAALTQAKSQRTKQSTVLAPVIDLKRGGSSDDRQIVDTPPHVAAGLKDPVPSGFSAGEVLIPLADEYDPMFPNDYEKVVKRQREERQRQRELERQKEIEEREKRRKDRHEASGFARRPDPDSDEDEDYERERRKRSMGGAAIAPPTSLVEKDKELPRDFPYEEDSRPRSQSSKAAIPPPVYEEQDRPRSPTGPSNSFLANMGGTVAHKIMQKYGFREGQGLGKHEQGLSTALSVEKTSKRGGKIIVGDATEKDASKKSDSNPLTEILKCPTKVVLLRNMVGAGEVDEDLEVETKEECEKYGKVGKCVIFEIPGAPDDEAVRIFLEFERVESAIKAVVDLNGRYFGGRVVKACFYNLDKFRVLDLAEQV
partner: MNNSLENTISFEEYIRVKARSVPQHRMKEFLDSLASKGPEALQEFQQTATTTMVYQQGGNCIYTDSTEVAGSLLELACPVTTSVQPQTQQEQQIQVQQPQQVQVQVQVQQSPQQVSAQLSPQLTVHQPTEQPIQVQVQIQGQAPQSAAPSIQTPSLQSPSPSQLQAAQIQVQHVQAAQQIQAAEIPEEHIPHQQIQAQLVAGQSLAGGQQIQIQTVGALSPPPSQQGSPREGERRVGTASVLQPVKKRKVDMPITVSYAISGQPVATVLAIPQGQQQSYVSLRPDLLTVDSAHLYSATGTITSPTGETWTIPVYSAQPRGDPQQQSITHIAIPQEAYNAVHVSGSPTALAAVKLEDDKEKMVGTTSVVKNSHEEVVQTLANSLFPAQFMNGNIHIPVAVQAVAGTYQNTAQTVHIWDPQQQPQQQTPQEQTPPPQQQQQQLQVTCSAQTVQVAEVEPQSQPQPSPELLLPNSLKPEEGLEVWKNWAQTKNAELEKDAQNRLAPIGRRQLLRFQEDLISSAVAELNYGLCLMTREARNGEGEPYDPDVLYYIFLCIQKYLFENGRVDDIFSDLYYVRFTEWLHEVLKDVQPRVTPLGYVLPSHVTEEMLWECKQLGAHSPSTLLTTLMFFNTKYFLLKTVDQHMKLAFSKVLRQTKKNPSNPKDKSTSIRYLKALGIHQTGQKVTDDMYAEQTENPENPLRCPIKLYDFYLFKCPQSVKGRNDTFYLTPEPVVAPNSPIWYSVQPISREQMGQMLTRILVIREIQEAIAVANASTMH
B6: Adenylate kinase 8 (Homo sapiens), Q96MA6 (parent)
chain: MDATIAPHRIPPEMPQYGEENHIFELMQNMLEQLLIHQPEDPIPFMIQHLHRDNDNVPRIVILGPPASGKTTIAMWLCKHLNSSLLTLENLILNEFSYTATEARRLYLQRKTVPSALLVQLIQERLAEEDCIKQGWILDGIPETREQALRIQTLGITPRHVIVLSAPDTVLIERNLGKRIDPQTGEIYHTTFDWPPESEIQNRLMVPEDISELETAQKLLEYHRNIVRVIPSYPKILKVISADQPCVDVFYQALTYVQSNHRTNAPFTPRVLLLGPVGSGKSLQAALLAQKYRLVNVCCGQLLKEAVADRTTFGELIQPFFEKEMAVPDSLLMKVLSQRLDQQDCIQKGWVLHGVPRDLDQAHLLNRLGYNPNRVFFLNVPFDSIMERLTLRRIDPVTGERYHLMYKPPPTMEIQARLLQNPKDAEEQVKLKMDLFYRNSADLEQLYGSAITLNGDQDPYTVFEYIESGIINPLPKKIP

Variants of: B1
Conditions: with ska1_human SKA1, Q96BD8
ska1_human SKA1, Q96BD8, sequence (Q96BD8 whole entry): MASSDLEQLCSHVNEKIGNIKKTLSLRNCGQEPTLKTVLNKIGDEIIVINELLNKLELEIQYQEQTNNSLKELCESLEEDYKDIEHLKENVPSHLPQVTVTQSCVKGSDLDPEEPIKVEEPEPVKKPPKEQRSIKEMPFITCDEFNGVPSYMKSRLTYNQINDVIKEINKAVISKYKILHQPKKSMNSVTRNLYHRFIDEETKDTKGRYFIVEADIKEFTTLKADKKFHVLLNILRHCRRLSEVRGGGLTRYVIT

Variant | effect of a mutation on the interaction
MDPIRSFCGKLRSLASTLDCETARLQRALDGEESDFEDYPMRILYDLHSEVQTLKDDVNILLDKARLENQEGIDFIKATKVLMEKNSMDIMKIREYFQKYGYSPRVKKNSVHEQEAINSDPELSNCENFQKTDVKDDLSDPPVASSCISEKSPRSPQLSDFGLERYIVSQVLPNPPQAVNNYKEEPVIVTPPTKQSLVKVLKTPKCALKMDDFECVTPKLEHFGISEYTMCLNEDYTMGLKNARNNKSEEAIDTESRLNDNVFATPSPIIQQLEKSDAEYTNSPLVPTFCTPGLKIPSTKNSIALVSTNYPLSKTNSSSNDLEVEDRTSLVLNSDTCFENLTDPSSPTISSYENLLRTPTPPEVTKIPEDILQLLSKYNSNLATPIAIKAVPPSKMFLKHGQNIRDVSNKEN [R396M] | with no effect
MDPIRSFCGKLRSLASTLDCETARLQRALDGEESDFEDYPMRILYDLHSEVQTLKDDVNILLDKARLENQEGIDFIKATKVLMEKNSMDIMKIREYFQKYGYSPRVKKNSVHEQEAINSDPELSNCENFQKTDVKDDLSDPPVASSCISEKSPRSPQLSDFGLERYIVSQVLPNPPQAVNNYKEEPVIVTPPTKQSLVKVLKTPKCALKMDDFECVTPKLEHFGISEYTMCLNEDYTMGLKNARNNKSEEAIDTESRLNDNVFATPSPIIQQLEKSDAEYTNSPLVPTFCTPGLKIPSTKNSIALVSTNYPLSKTNSSSNDLEVEDRTSLVLNSDTCFENLTDPSSPMISSYENLLRTPTPPEVTKIPEDILQLLSKYNSNLATPIAIKAVPPSKRFLKHGQNIRDVSNKEN [T348M] | with no effect

Variants of: B2
Conditions: with tera_human VCP

Variant | effect of a mutation on the interaction
K58M | disrupting interaction strength

Variants of: B2
Conditions: with keap1_human KEAP1, Q14145
keap1_human KEAP1, Q14145, sequence (Q14145 whole entry): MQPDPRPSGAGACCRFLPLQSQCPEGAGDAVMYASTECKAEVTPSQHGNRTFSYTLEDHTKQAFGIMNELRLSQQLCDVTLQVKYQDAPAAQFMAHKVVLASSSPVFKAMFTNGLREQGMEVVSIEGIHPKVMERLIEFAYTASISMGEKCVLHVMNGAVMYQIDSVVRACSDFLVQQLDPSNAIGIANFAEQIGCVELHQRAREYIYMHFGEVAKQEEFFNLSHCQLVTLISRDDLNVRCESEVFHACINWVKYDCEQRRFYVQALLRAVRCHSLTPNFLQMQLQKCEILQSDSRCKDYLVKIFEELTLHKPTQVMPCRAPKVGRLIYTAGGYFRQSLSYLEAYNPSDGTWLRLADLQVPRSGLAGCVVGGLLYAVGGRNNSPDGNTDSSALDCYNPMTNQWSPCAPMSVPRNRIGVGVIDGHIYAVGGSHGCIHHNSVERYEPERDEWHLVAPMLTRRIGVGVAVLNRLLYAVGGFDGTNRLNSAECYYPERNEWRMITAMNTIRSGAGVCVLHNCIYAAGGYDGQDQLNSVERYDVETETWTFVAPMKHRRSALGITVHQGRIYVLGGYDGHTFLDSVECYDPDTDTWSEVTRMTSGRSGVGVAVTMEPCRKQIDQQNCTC

Variant | effect of a mutation on the interaction
K58M | with no effect

Variants of: B3
Conditions: with pin4_human PIN4, Q9Y237
pin4_human PIN4, Q9Y237, sequence (Q9Y237 whole entry): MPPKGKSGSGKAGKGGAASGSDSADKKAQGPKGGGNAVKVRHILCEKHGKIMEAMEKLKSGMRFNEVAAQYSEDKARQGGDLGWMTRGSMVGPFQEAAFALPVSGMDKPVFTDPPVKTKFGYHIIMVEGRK

Variant | effect of a mutation on the interaction
METPTPLPPVPASPTCNPAPRTIQIEFPQHSSSLLESLNRHRLEGKFCDVSLLVQGRELRAHKAVLAAASPYFHDKLLLGDAPRLTLPSVIEADAFEGLLQLIYSGRLRLPLDALPAHLLVASGLQMWQVVDQCSEILRELETSGGGISARGGNSYHALLSTTSSTGGWCIRCSPFQTPVQSSASTESPASTESPVGGEGSELGEVLQIQVEEEEEEEEDDDDEDQGSATLSQTPQPQRVSGVFPRPHGPHPLPMTATPRKLPEGESAPLELPAPPALPPKIFYIKQEPFEPKEEISGSGTQPGGAKEETKVFSGGDTEGNGELGFLLPSGPGPTSGGGGPSWKPVDLHGNEILSGGGGPGGAGQAVHGPVKLGGTPPADGKRFGCLCGKRFAVKPKRDRHIMLTFSLRPFGCGICNKRFKLKHHLTEHMKTHAGALHACPHCGRRFRVHACFLRHRDLCKGQGWATAHWTYK [S173C] | with no effect

Variants of: B3
Conditions: with if4e2_human EIF4E2, O60573
if4e2_human EIF4E2, O60573, sequence (O60573 whole entry): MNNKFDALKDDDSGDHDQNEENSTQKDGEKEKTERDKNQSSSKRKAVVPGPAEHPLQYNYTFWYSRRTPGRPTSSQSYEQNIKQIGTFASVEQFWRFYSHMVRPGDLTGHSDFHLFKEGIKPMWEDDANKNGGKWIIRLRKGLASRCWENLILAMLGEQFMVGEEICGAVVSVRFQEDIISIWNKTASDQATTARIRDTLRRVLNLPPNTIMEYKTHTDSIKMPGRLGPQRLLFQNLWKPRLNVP

Variant | effect of a mutation on the interaction
METPTPLPPVPASPTCNPAPRTIQIEFPQHSSSLLESLNRHRLEGKFCDVSLLVQGRELRAHKAVLAAASPYFHDKLLLGDAPRLTLPSVIEADAFEGLLQLIYSGRLRLPLDALPAHLLVASGLQMWQVVDQCSEILRELETSGGGISARGGNSYHALLSTTSSTGGWCIRCSPFQTPVQSSASTESPASTESPVGGEGSELGEVLQIQVEEEEEEEEDDDDEDQGSATLSQTPQPQRVSGVFPRPHGPHPLPMTATPRKLPEGESAPLELPAPPALPPKIFYIKQEPFEPKEEISGSGTQPGGAKEETKVFSGGDTEGNGELGFLLPSGPGPTSGGGGPSWKPVDLHGNEILSGGGGPGGAGQAVHGPVKLGGTPPADGKRFGCLCGKRFAVKPKRDRHIMLTFSLRPFGCGICNKRFKLKHHLTEHMKTHAGALHACPHCGRRFRVHACFLRHRDLCKGQGWATAHWTYK [S173C] | with no effect

Variants of: B3
Conditions: with mo4l1_human MORF4L1, Q9UBU8
mo4l1_human MORF4L1, Q9UBU8, sequence (Q9UBU8 whole entry): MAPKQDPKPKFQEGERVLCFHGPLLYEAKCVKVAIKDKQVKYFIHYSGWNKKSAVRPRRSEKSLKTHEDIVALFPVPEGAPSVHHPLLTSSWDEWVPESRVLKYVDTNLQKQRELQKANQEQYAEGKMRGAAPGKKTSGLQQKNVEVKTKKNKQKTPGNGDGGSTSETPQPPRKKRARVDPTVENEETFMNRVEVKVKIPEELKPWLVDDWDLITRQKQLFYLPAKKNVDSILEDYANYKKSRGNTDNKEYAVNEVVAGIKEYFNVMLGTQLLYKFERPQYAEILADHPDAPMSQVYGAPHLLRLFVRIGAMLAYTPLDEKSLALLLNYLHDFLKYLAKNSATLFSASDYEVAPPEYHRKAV

Variant | effect of a mutation on the interaction
METPTPLPPVPASPTCNPAPRTIQIEFPQHSSSLLESLNRHRLEGKFCDVSLLVQGRELRAHKAVLAAASPYFHDKLLLGDAPRLTLPSVIEADAFEGLLQLIYSGRLRLPLDALPAHLLVASGLQMWQVVDQCSEILRELETSGGGISARGGNSYHALLSTTSSTGGWCIRCSPFQTPVQSSASTESPASTESPVGGEGSELGEVLQIQVEEEEEEEEDDDDEDQGSATLSQTPQPQRVSGVFPRPHGPHPLPMTATPRKLPEGESAPLELPAPPALPPKIFYIKQEPFEPKEEISGSGTQPGGAKEETKVFSGGDTEGNGELGFLLPSGPGPTSGGGGPSWKPVDLHGNEILSGGGGPGGAGQAVHGPVKLGGTPPADGKRFGCLCGKRFAVKPKRDRHIMLTFSLRPFGCGICNKRFKLKHHLTEHMKTHAGALHACPHCGRRFRVHACFLRHRDLCKGQGWATAHWTYK [S173C] | with no effect

Variants of: B4
Conditions: with lnx1_human LNX1, Q8TBB1
lnx1_human LNX1, Q8TBB1, sequence (Q8TBB1 whole entry): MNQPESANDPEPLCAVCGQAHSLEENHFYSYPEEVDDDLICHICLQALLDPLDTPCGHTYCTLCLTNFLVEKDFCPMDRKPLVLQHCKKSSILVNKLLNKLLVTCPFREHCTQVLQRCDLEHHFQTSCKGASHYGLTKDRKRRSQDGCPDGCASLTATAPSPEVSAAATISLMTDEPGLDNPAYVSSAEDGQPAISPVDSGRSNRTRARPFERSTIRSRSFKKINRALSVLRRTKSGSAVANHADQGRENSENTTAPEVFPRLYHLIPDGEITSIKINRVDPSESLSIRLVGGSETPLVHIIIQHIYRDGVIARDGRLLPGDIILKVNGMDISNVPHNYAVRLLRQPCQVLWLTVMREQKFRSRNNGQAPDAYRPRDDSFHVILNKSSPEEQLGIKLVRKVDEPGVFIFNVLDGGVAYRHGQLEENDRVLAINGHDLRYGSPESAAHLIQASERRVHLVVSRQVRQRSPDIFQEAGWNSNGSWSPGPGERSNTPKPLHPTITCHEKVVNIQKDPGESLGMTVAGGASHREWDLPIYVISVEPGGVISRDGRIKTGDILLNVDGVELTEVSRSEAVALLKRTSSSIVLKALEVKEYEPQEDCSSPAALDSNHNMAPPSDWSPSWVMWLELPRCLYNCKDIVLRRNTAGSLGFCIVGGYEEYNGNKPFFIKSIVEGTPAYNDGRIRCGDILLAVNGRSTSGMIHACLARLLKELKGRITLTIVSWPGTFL

Variant | effect of a mutation on the interaction
MKRQGASSERKRARIPSGKAGAANGFLMEVCVDSVESAVNAERGGADRIELCSGLSEGGTTPSMGVLQVVKQSVQILVFVMIRPRGGDFLYSDREIEVMKADIRLAKLYGADGLVFGALTEDGHIDKELCMSLMAICRPLPVTFHRAFDMVHDPMAALETLLTLGFERVLTSGCDSSALEGLPLIKRLIEQAKGRIVVMPGGGITDRNLQRILEGSGATEFHCSARSTRDSGMKFRNSSVAMGASLSCSEYSLKVTDVTKVRTLNAIAKNILV [P77L] | disrupting interaction strength

Variants of: B5
Conditions: with qric1_human QRICH1, Q2TAL8

Variant | effect of a mutation on the interaction
MSLYDDLGVETSDSKTEGWSKNFKLLQSQLQVKKAALTQAKSQRTKQSTVLAPVIDLKRGGSSDDRQIVDTPPHVAAGLKDPVPSGFSAGEVLIPLADEYDPMFPNDYEKVVKRQREERQRQRELERQKEIEEREKRRKDRHEASGFARRPDPDSDEDEDYERERRKRSMGGAAIAPPTSLVEKDKELPRDFPYEEDSRPRSQSSKAAIPPPVYEEQDRPRSPIGPSNSFLANMGGTVAHKIMQKYGFREGQGLGKHEQGLSTALSVEKTSKRGGKIIVGDATEKDASKKSDSNPLTEILKCPTKVVLLRNMVGAGEVDEDLEVETKEECEKYGKVGKCVIFEIPGAPDDEAVRIFLEFERVESAIKAVVDLNGRYFGGRVVKACFYNLDKFRVLDLAEQV [T224I] | with no effect

Variants of: B6
Conditions: with mcm7_human MCM7, P33993
mcm7_human MCM7, P33993, sequence (P33993 whole entry): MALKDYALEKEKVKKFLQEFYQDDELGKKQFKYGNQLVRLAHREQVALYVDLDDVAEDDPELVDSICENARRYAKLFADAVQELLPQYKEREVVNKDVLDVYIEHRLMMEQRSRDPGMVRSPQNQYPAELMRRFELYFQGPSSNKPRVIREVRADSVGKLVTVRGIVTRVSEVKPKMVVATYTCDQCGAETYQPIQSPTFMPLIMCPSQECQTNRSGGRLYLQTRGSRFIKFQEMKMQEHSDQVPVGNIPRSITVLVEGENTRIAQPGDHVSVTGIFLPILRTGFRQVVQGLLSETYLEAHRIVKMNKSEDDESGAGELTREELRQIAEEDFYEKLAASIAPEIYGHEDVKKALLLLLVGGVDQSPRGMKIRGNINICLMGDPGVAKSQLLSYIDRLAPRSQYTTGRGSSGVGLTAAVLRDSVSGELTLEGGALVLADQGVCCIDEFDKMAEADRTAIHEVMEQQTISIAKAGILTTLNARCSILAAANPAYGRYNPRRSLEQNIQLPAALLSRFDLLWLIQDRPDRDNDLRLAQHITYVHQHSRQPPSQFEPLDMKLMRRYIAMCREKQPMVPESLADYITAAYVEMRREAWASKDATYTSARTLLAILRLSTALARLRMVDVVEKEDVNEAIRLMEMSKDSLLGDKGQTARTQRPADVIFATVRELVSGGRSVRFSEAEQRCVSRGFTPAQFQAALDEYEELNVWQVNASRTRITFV

Variant | effect of a mutation on the interaction
MDATIAPHRIPPEMPQYGEENHIFELMQNMLEQLLIHQPEDPIPFMIQHLHRDNDNVPRIVILGPPASGKTTIAMWLCKHLNSSLLTLENLILNEFSYTATEARRLYLQRKTVPSALLVQLIQERLAEEDCIKQGWILDGIPETREQALRIQTLGITPRHVIVLSAPDTVLIERNLGKRIDPQTGEIYHTTFDWPPESEIQNRLMVPEDISELETAQKLLEYHRNIVRVIPSYPKILKVISADQPCVDVFYQALTYVQSNHRTNAPFTPRVLLLGPVGSGKSLQAALLAQKYRLVNVCCGQLLKEAVADRTTFGELIQPFFEKEMAVPDSLLMKVLSQCLDQQDCIQKGWVLHGVPRDLDQAHLLNRLGYNPNRVFFLNVPFDSIMERLTLRRIDPVTGERYHLMYKPPPTMEIQARLLQNPKDAEEQVKLKMDLFYRNSADLEQLYGSAITLNGDQDPYTVFEYIESGIINPLPKKIP [R339C] | disrupting interaction strength
